Values quoted from earlier work, collected in publication PMC6605686.

Target: Glu325 (UniProt position 325, TLHMFEVPFLL)
Assay: kinetics
Settings: sugar binding to LacY; apparent pK of galactoside affinity

Lactose permease (LacY) (Escherichia coli)
pKa: ∼10.5
